Data set [1] is described as follows: Enantioselective hydrolyzing activity of purified EHases toward SO. In kind it is biochemical. The note with it: purified enzyme. The protocol:
(§1) Kinetic parameters of the rEEH1, rEEH2, rEEH3, sEEH, nEEH, and rEEH were determined by a GC analysis using (R)- or (S)- styrene oxide substrate. 100 ul of purified EHases were mixed with various concentrations of (R)- or (S)- styrene oxide in a 10 ml tube containing 1 ml of potassium phosphate buffer (100 mM, pH 8.0), and shake-incubated at 200 rpm and a temperature of 30° C. The extraction mixtures were extracted with 2 ml of hexane, and enantiomeric excess [ee; ee=100×(S−R)/(S+R)] toward enantiopure styrene oxide was analyzed with a chiraldex gamma-cyclodextrin trifluoroacetyl(G-TA) capillary GC column. Wherein, the FIG. 8 was diagramed with GC analysis for the hydrolyzing activities of enantioselective EHases (rEEH1, rEEH2, and rEEH3) toward racemic styrene oxide.
(§2) Kinetic parameters were estimated by non-linear regression analysis using a Sigma Plot program, and various substrates as depicted in FIG. 1 were also tested for the enantioselective hydrolyzing activity by rEEH1, rEEH2, rEEH3, sEEH, nEEH, and rEEH.

A short description of data set [2]: Optimum activity conditions of sEEH, nEEH and rEEH. In kind it is biochemical. The protocol: After cloning the genes into pET-24a (+) expression vector, the vector was introduced into BL21-CondonPlus(DE3)-RP (Novagen), and then separated by SDS-PAGE. […] Also, the optimum activities of sEEH, nEEH, and rEEH occurred at neutral pH and mesophilic conditions (30 to 40° C.).

Substrate in data set [3]: c1ccc([C@H]2CO2)cc1
Kind of data set: Kinetic parameters of purified nEEH by GC analysis with (R)- or (S)-styrene oxide. The class given is biochemical, Novosphingobium aromaticivorans. As to conditions: other: 100 mM potassium phosphate pH 8.0, 30° C. The protocol: as §1, §2

Substrate in data set [4]: c1ccc([C@@H]2CO2)cc1
Described as above. In kind it is biochemical, Novosphingobium aromaticivorans. The note with it: other: 100 mM potassium phosphate pH 8.0, 30° C. The protocol: as §1, §2

Substrate in data set [5]: c1ccc([C@H]2CO2)cc1
Description: Kinetic parameters of purified sEEH by GC analysis with (R)- or (S)-styrene oxide. The class given is biochemical, Sphingopyxis alaskensis. As to conditions: other: 100 mM potassium phosphate pH 8.0, 30° C. The protocol: as §1, §2

Substrate in data set [6]: c1ccc([C@@H]2CO2)cc1
The data set is described as above. The class given is biochemical, Sphingopyxis alaskensis. The note with it: other: 100 mM potassium phosphate pH 8.0, 30° C. The protocol: as §1, §2

B1: Novosphingobium aromaticivorans epoxide hydrolase nEEH (Novo), SEQ ID NO: 30 (Novosphingobium aromaticivorans DSM 12444) (protein)
chain: MNVAPFVVDIPRGEIEDLHRRIDMTRWPEKETVDDWSQGTPLGALQDFVSYWRGGYDWYACQRMLNDWGMFETEIDGVAIRFLHVRSAQADARPLLLTHGWPGSILEFRRCIAPLTRPEEHGGTAADAFHLVIPCLPGYGFSGKPTRKGWSVQKIAQAWGELMKRLGYESWLAQGGDWGSAVTTAIGALKVEGCAGIHLNMPIARPLPEDLAAPTPEELRALTALQHYQDWDSGYSKEQATRPQTVGYGLVDSPVGLAGWIYEKMWAWTDNEGAPEDALSRDDMLDNIMLYWLTAAGASSARLYWESFASFGPSQIDIPAAASAFPKEIIPAPRKWFERNCSKLVYWGELEKGGHFAAWEQPEAFVKELRAAFSLMC
In the case of B1, in data set [1], the “enantiomer preference in hydrolysis of styrene oxide, in words” value is “not enantioselective”. Also, the “optimum pH” value in data set [2] was “neutral pH”. In addition, in data set [3], the Km (as a rule, the substrate concentration at which the rate is half of its maximum) was determined as 4 ± 0.3 mM; the Vmax (in general, the rate approached at saturating substrate) worked out at 18.7 µmol/min/mg; the turnover number (kcat) (as a rule, the number of substrate molecules converted per active site and unit of time at saturation) was determined as 13 s⁻¹; the kcat/Km (as a rule, the second-order rate constant that governs catalysis at low substrate concentration) worked out at 3240 M⁻¹ s⁻¹. Also, in data set [4], the Michaelis-Menten constant (Km) is listed as 6 ± 0.3 mM, the Vmax worked out at 40 µmol/min/mg, the kcat was determined as 27.8 s⁻¹ and the kcat/Km was determined as 4630 M⁻¹ s⁻¹.

B2: Sphingopyxis alaskensis epoxide hydrolase sEEH (Sp), SEQ ID NO: 28 (Sphingopyxis alaskensis RB2256) (protein)
chain: SSAGPSTAITVSAAAAVAAPQDESIRPFHVSIPEEALTDLRRRLAETRWPDREKVSDASQGVQLDRLEPLVRYWGTDYDWRKGEARLNAVPQFITTIDGLDIQFIHIRSKHKGAMPLLMTHGWPGSPFELLKTVGPLTDPTAHGGKAEDAFDLIMPTYPGYGFSGKPNEAWDPARVARAWDVLMKRLGYKNYVSQGGDWGAIISQVLAVQAPEGLLGIHTNMPGTVPPGVLKLVRAKQPAPDSYSPEEKIAYAGLETFYGKGFGYAEMMNTRPQTLGYGLSDSPVGLAAFLYEKIATWTDSGGNPESVLTRDEILDNITLYWLTNTGTSSSRSYWDAAQGPGGPFNAIEISKVPVAVTVFPGEIYRAPRSWGEKSFKKLIYWNEVDKGGHFAAWEQPELFAAEIRAAFRPLREKK
Turning to B2, in data set [5], the Km was determined as 5.25 ± 0.3 mM, the Vmax turned out to be 12.1 µmol/min/mg, the catalytic constant (kcat) was 10.1 s⁻¹ and the kcat/Km was 1920 M⁻¹ s⁻¹. Besides, in data set [6], the Michaelis constant (Km) is 4 ± 0.3 mM, the maximal velocity (Vmax) worked out at 8.9 µmol/min/mg, the turnover number (kcat) is 7.42 s⁻¹ and the kcat/Km was 1860 M⁻¹ s⁻¹.

B3: sEEH: 49 kDa epoxide hydrolase purified from Sphingopyxis alaskensis, SEQ ID NO: 28 (protein, listed as Erythrobacter litoralis)
chain: MSPAKSISLRRLLSTAISVAALGMTLQSSPSFASSAGPSTAITVSAAAAVAAPQDESIRPFHVSIPEEALTDLRRRLAETRWPDREKVSDASQGVQLDRLEPLVRYWGTDYDWRKGEARLNAVPQFITTIDGLDIQFIHIRSKHKGAMPLLMTHGWPGSPFELLKTVGPLTDPTAHGGKAEDAFDLIMPTYPGYGFSGKPNEAWDPARVARAWDVLMKRLGYKNYVSQGGDWGAIISQVLAVQAPEGLLGIHTNMPGTVPPGVLKLVRAKQPAPDSYSPEEKIAYAGLETFYGKGFGYAEMMNTRPQTLGYGLSDSPVGLAAFLYEKIATWTDSGGNPESVLTRDEILDNITLYWLTNTGTSSSRSYWDAAQGPGGPFNAIEISKVPVAVTVFPGEIYRAPRSWGEKSFKKLIYWNEVDKGGHFAAWEQPELFAAEIRAAFRPLREKK
Take B3: the “enantiomer preference in hydrolysis of styrene oxide, in words” value in data set [1] is reported as “not enantioselective”. The “optimum pH” value in data set [2] is “neutral pH”.

For the origin of these results see patent US8030048B2, “Enantioselective epoxide hydlrolase and method for preparing and enantiopure epoxide using the same” (Korea Ocean Research and Development Institute, priority 2005, dated 2011).
